The nature of the series: soluble on expression in E. coli; label from the status in PepcDB or PDB records.
Turning to “MSLEISKQTSDLLLSLEKKKGTLPKFSVLRSIPRNRIIYGAPGTGKSNYLEREVGKIFGDNPYVFTRVTFFPGYTYGQFIGAYKPVPIYKKLSGEEEIFSSNFRDKMENFEPMIDYQFVPGPFIDVLIKALKNRYTNFILIIEEINRANAASVFGDIFQLLDRNKNGESDYPVTFGPDIMNYLARNGIKDEMIKLPSNFFIWATMNNADQGVLPLDTAFKRRWSFEYLELEKYRKAVDSWKLSLRYKGHNKVIMWNDFRDIINKRLKGKVPEDKLLGPFFLKESELWNQNVFKNKLLYYLKEDVFKHNPTIDFLNASTFSELIEKYDGSDNIFTFDIDDSSFVSDEGGSHHHHHH”, the “soluble on expression in E. coli” value is recorded as “soluble”.

In the case of “MSLTQKRLGLIMNGITGRMGLNQHLIRSVVAIRAQGGVPLSDGTKVQLDPILIGRNADKVEGLAKQYGIERWGTDLDAALADPGNEIFFDAATTQMRPILLEKAIRAGKHVYCEKPIATNLPEAVRICRLAEEKGVKNGVVQDKLFLPGLQKLKLLRDSGFFGRMISVRGEFGYWVFEGDWGQPAQRPSWNYRSQEGGGMILDMVCHWRYVLDNLFGEVKSVSCLGATHIPSRVDERGQPYEATADDAAYATFELQDGVIAHINMSWCTRVYRDDLVTFQVDGTLGSAVAGLSDCVFQSRVGTPRPVWNPDQKQTMDFYNHWQPVPDTAVFDNGFKVQWEMFIRHVVEDAPYRFTLREGAKGVQLVECALQSWKERRWIDVPTLEASERAVLQAAEEGHHHHHH”, the “soluble on expression in E. coli” value is on record as “soluble”.

On to “ESCDLEVYDRVNQSDQLCVISGQGNKRVSFYVTEGVVRNLSLGDKMTVEKEGNAYEGVINDISTMVDDSNGLFKIKADLAQADSVATGSVVKVKVISGRSDNVMTVPVDAIYYDGGVGNVYVYEDGAVHKKEVEVGLYDSELAEIRSGLAADELVISTWSSQLYEGSTVNLKSEGGESAPAGKEPGTGRTETSAAAE”, for which the “soluble on expression in E. coli” value is “not soluble”.

Regarding “MIQFSINRTLFIHALNTTKRAISTKNAIPILSSIKIEVTSTGVTLTGSNGQISIENTIPVSNENAGLLITSPGAILLEASFFINIISSLPDISINVKEIEQHQVVLTSGKSEITLKGKDVDQYPRLQEVSTENPLILKTKLLKSIIAETAFAASLQESRPILTGVHIVLSNHKDFKAVATDSHRMSQRLITLDNTSADFMVVLPSKSLREFSAVFTDDIETVEVFFSPSQILFRSEHISFYTRLLEGNYPDTDRLLMTEFETEVVFNTQSLRHAMERAFLISNATQNGTVKLEITQNHISAHVNSPEVGKVNEDLDIVSQSGSDLTISFNPTYLIESLKAIKSETVKIHFLSPVRPFTLTPGDEEESFIQLITPVRTN”, the “soluble on expression in E. coli” value is “soluble”.

With “SFRRKLTALEYHNPTGFDCKDETEFRNFIVWLEDQKIRHYKIEDRGNLRNIPSSDWPKYFEKYLQDVNCPFSVQERQETVDWLLGLAVRFEYGDNVEKYRNCKPVTETNDVQKSADPLINLDSNNPDFKAGVLALANLLKIQRHDDYLVMLKAIKILVQERLTPDAIAKASQAKEGLPVTLDKHILGFDTGDATLNEAAQVLRLLHIEELRELQTKINEAIVAVQAIIADPKTDHRLGKVGR”, the “soluble on expression in E. coli” value is “soluble”.

For the sequence “MGHHHHHHSHMKSQGQHWYSSSDKNCKVSFREKLLIIDSNLGVQDVENLKFLCIGLVPNKKLEKSSSASDVFEHLLAEDLLSEEDPFFLAELLYIIRQKKLLQHLNCTKEEVERLLPTRQRVSLFRNLLYELSEGIDSENLKDMIFLLKDSLPKTEMTSLSFLAFLEKQGKIDEDNLTCLEDLCKTVVPKLLRNIEKYKREKAIQIVTPPVDKEAESYQGEEELVSQTDVKTFLEALPQESWQNKHAGSNGNRATNGAPSLVSRGMQGASANTLNSETSTKRAAVYRMNRNHRGLCVIVNNHSFTSLKDRQGTHKDAEILSHVFQWLGFTVHIHNNVTKVEMEMVLQKQKCNPAHADGDCFVFCILTHGRFGAVYSSDEALIPIREIMSHFTALQCPRLAEKPKLFFIQACQGEEIQPSVSIEADALNPEQ”, the “soluble on expression in E. coli” value is “not soluble”.

On to “MKTLSPAVITLLWRQDAAEFYFSRLSHLPWAMLLHSGYADHPYSRFDIVVAEPICTLTTFGKETVVSESEKRTTTTDDPLQVLQQVLDRADIRPTHNEDLPFQGGALGLFGYDLGRRFESLPEIAEQDIVLPDMAVGIYDWALIVDHQRHTVSLLSHNDVNARRAWLESQQFSPQEDFTLTSDWQSNMTREQYGEKFRQVQEYLHSGDCYQVNLAQRFHATYSGDEWQAFLQLNQANRAPFSAFLRLEQGAILSLSPERFILCDNSEIQTRPIKGTLPRLPDPQEDSKQAVKLANSAKDRAENLMIVDLMRNDIGRVAVAGSVKVPELFVVEPFPAVHHLVSTITAQLPEQLHASDLLRAAFPGGSITGAPKVRAMEIIDELEPQRRNAWCGSIGYLSFCGNMDTSITIRTLTAINGQIFCSAGGGIVADSQEEAEYQETFDKVNRILKQLEK”, for which the “soluble on expression in E. coli” value is “soluble”.

For “MACPEATFFHRAGWKQVIEQAFGHKTWFLYIEEGGCIQGVLPLAEIDSLLFGHSLSALPFCVYGGIAAISDDARIRLDQAAQMLATYLKVDYLEYRHLHPFHHDWPTKDLYVTFRKTMDSDVEQNMLAIPRKQRAMVRKGMKYELQSYLDQDTDHFFRAYSASVHRLGTPVFSRKYFRLLKSVFAEDCELLIITKDENVVSAVMSFYFRDEVLPYYGGGTDAARDLAGNDFMYWELMRRACERGYRVFDFGRSKRGTGSYSFKKNWGFEPQPLFYEYQLHQAKTIPEHNPLNPKYQLFIKAWQKMPLALANMLGPHIVKNLG”, the “soluble on expression in E. coli” value is reported as “not soluble”.

On to “MSLARPDELMFAPLGGVGEIGMNLSIYGLGNRHQRSWLAVDLGVSFGDEEHLPGIDLIMPDVRFLEKERKNLVGLVLTHAHEDHFGAIIELWPRLKCPIYATKFSAALFEAKCAAERNPPDIPVTVVPSGDRIDLGPFGVEFVPVAHSIPESHALAIHTAAGIVVHTGDWKIDPTPIVGPPTDERRLRELGDEGVLALIGDSTNAVRDGRSPSETEVAKTIAELVKAARGRVAVTTFASNVGRLRAVADAARAAGREVVVVGRAMERVVQVARETGHLDGMQELRSADVYGHLPSDKVLALCTGSQGEPRAALARIAKDDHPQVTLNRGDTVIFSSRTIPGNERAVGAIINGLVTQGIKVITDRTELVHVSGHPRRDELRDMIAWVRPQLLIPVHGEALHLSEHAQLARAAGVPKVLICKNGDLVRLGPEGHHHHHH”, for which the “soluble on expression in E. coli” value is “soluble”.

Take “MAHHHHHHMDYNVSTAAVVLDCGSFHSRAGFGGEKGPRLDVPTLVGYPRHRSIAMAAGMNEQEVGEEALLKQGILDVHHPIRNGFINDWGDVEKLWSHLFFNELRVSPETHCFLLTQPVNTPAAQRERTLEIMMETFHAHSLYLGTSQVLSLYSYGLTTGLVVDSGKDVTHAVPIHEGYALVRHVTQSPVAGAALTRYLGGLLREQGYALGTATEQELLNGAKEDLCYVRPRAHVQRGAVSDIYTPASGTSAGVSPAAASAASRRSTQLTGGIKGSADSASSATATTAVTAKESFMESAAEKHLDVDGGLTPTAVMGATEDFLLPDGQRIPLAAERYDTAEVLFNYSLLALMDSNGKDSSTYEPRCKVRTDMGDLFRPSFEKGISWLPFAAVNNCEAALRPQLYANMVLAGGSTSFPGLKARLESEVRQLYRESHPSEAVVPIQVRDMPCRTYSTWLGGSMLAQTAVFQHLVVSRKEYEEEGARVIHYKSL”: the “soluble on expression in E. coli” value is “not soluble”.

Consider “GPGSMLLMPFPLVPSPPPTRLSGHLTPVALVGVLVCASPRCAPKPRPRPWNASHTHTHTHTSPRPLIAHTVSLCVSVVRKHLFFFRRFLRLPPSPNRKRNQLTGAAMLTRRAVSSAVGAAMVTSSSVSMQRRYDHDRWYGHALELDTHNYKFNGEPPSWMKTRAKTEEETSFAKSVLPHIDFASSYECLLFDADRLNTNLNRKEFGNEIKYRLEKQANTVARAQQLLRDKKAGTGPDAEKVENTLIARIFDEEHVQAEMKYVKCIRANELAEDNRLDILPGGSPNSLREKTRWNLNTELHPADRAEIGARLTAWLPEKYHIVYFDDFQTVAANDATARKEMLEIVESVQKEYTAEAKEGGYESDLKEAVAELMDDVDPTRTITMEAIKSCKDLQQLEDWSRQVHEYNGDDRIIAIYARAAEITKNVEHQALVRQMREWRKLATKNESKL”, for which the “soluble on expression in E. coli” value is “not soluble”.

For “NVAGEEAVREYKKGDEISAVVLAVDAERERISLGIKQMENDPFNAYVADNKKGTLVNATVTAVDAKGATVEIAEGVEGYIRASEVSRDRVEDASLILSAGDVVEAKFTGVDRKNRVINLSIKAKDEAEEQEAMASINKQDEAAFGNAMADAFKAAKGE”, the “soluble on expression in E. coli” value is “not soluble”.

Take “MDLTVPVEYSRAGNTTHSGNVHAIQDDEKFSYGTAGFRFKSEKLPFIVFRCAYVASLRARQLNSAIGVMITASHNPSCDNGVKLVDPSGDMLNEQWEIYATEVVNATDAELPAAVRALEKQISVGKTQLSRVVCGMDTRCSGPCLMNAARAGAALFNVQFDDIGVVSTPMLHYAVKAFNEPKFAEPTHDGYYSAIADSFKKLYEITEEPKDSRYQPKVIVDCANGVGAPRFRNLLERIPSSLLEVEFRNESEELNQGCGADFVKISQKLPANFSPTAAEPKCASFDGDADRLMYFRAKASENSESNDAELFDGDKIAVLIVTYIREQLKDYENSTPMERLRLGIVQTAYANGSSTRYIREKLGIEPIIVPTGVKHLHEAASEFDIGIYFEANGHGTVVFSEIFDRIIRRTPTESLPLRRLALFSRVINETVGDAFADLLAVEAVLRHYGWSMDDWAEKLYRDVPNVQIKVPVIDRSIFKTTNAEQTLVKPVGIQKMIDTDVAKYNNSRAFIRPSGTENIVRVYAEADTVENTLQLGKSLEQVVLNLCNSN”: the “soluble on expression in E. coli” value is reported as “not soluble”.

Turning to “MGAGEKGIVEKEGYQLDTRRQAQAAYPRIKVLVIHYTADDFDSSLATLTDKQVSSHYLVPAVPPRYNGKPRIWQLVPEQELAWHAGISAWRGATRLNDTSIGIELENRGWQKSAGVKYFAPFEPAQIQALIPLAKDIIARYHIKPENVVAHADIAPQRKDDPGPLFPWQQLAQQGIGAWPDAQRVNFYLAGRAPHTPVDTASLLELLARYGYDVKPDMTPREQRRVIMAFQMHFRPTLYNGEADAETQAIAEALLEKYGQD”, the “soluble on expression in E. coli” value is reported as “soluble”.

As for “MAVNLLKKNSLALVASLLLAGHVQATELLNSSYDVSRELFAALNPPFEQQWAKDNGGDKLTIKQSHAGSSKQALAILQGLKADVVTYNQVTDVQILHDKGKLIPADWQSRLPNNSSPFYSTMGFLVRKGNPKNIHDWNDLVRSDVKLIFPNPKTSGNARYTYLAAWGAADKADGGDKGKTEQFMTQFLKNVEVFDTGGRGATTTFAERGLGDVLISFESEVNNIRKQYEAQGFEVVIPKTNILAEFPVAWVDKNVQANGTEKAAKAYLNWLYSPQAQTIITDYYYRVNNPEVMDKLKDKFPQTELFRVEDKFGSWPEVMKTHFTSGGELDKLLAAGRN”, the “soluble on expression in E. coli” value is listed as “soluble”.

For the sequence “MCSLLKLLKISGKSVSDDDPIERYIKCEQCKCKRHWVEQLQRDEMDQMLHRLQFENKQLRKELEWKRGAASTMEIDRSSKRHQERHQSESRGGTLPLRNGRSVVSLKSTQSQNDVMDEAKALRLHKQRLEHRSRILEQQNEQLEMQLQRLKKVIDAQKQQAPLSTNSLLRGSHHQPWSPERARSGSASTLDRGLIVSSRHQEQAEAAGGGAEDSSDEAGGAGGGPRGSSVGQMQNLMTACDDLGKAMESLVVSVVYDSDDEEND”, the “soluble on expression in E. coli” value is “not soluble”.

As to “MQRYFVEEKYVNETSIRIVGDDVHHIARVMRMSAGDHIYCCVNGKTAVCSIDEITSEFINTAIVEWVEASSELPVFVTIASGLPKGDKLELIFQKGTELGAAAFLPFQASRSIVKWDAKKADKKVERLRKIVKEAAEQSHRSEIPEVHAPASFKQLLSMSGEYDTCLVAYEEEAKQGEKSNFAKALTTMKPGQKLLIVFGPEGGLAEEEITALREHKFVPCSLGPKNFKNRNGAVIRVKCCFVSF”, the “soluble on expression in E. coli” value is “not soluble”.

As for “NGSKTDLGLLSKNSADFLGSSKRSLAGFDTPFSPDNLQYLEKETDYDQNFKSFTEKFKDEKITNNQLGIVDIYNLFSGFHKSVKSTVDLMNQLQKQVEAANAIFPVDDAFVKLPKVPTELFKLVDDNVFPKLNPKGLNISDNIAALFERYNLKSIELKNFDLAFLRKADVIIKDKVRYNFEM”, the “soluble on expression in E. coli” value is reported as “not soluble”.

The record behind these values is the DeepSol protein solubility set.
